Substitutions are numbered along the chain they refer to.
B1: humanized anti-human CCL20 antibody 36LK3/36HC2 (antibody, human IgG1, kappa, V domains shown)
VH: QVQLVQSGAEVKKPGASVKVSCKASGYTFTNYWMHWVRQAPGQGLEWMGVIDPSDSYTTYAQKFQGRVTMTVDTSTSTVYMELSSLRSEDTAVYYCARGNYGVDYAMDYWGQGTLVTVSS
VL: DIQMTQSPSSLSASVGDRVTITCGASENIYGALNWYQRKPGKAPKLLIYGATNLADGVPSRFSGSGSGRDYTLTISSLQPEDFATYYCQNVLITPYTFGQGTKLEIKR
notes: expressed in HEK293 cells; also called HC2/LK3; HC2LK3
B2: humanized anti-human CCL20 antibody 36LC3/36HC2 (antibody, human IgG1, kappa, V domains shown)
VH: B1 VH
VL: B1 VL with G24R, R38Q, D70Q, T72S, Q100G
notes: expressed in HEK293 cells; also called HC2/LC3; HC2LC3
B3: chimeric 36F7C10 antibody (36F7C10-hFc) (antibody, V domains shown)
VH: QVQLQQPGAELVKPGASVKMSCKASGYTFTNYWMHWVKQRPGQGLEWIGVIDPSDSYTTYNQKFKGKATLTVDTSSSTAYMQLSSLTSEDSAVYYCTRGNYGVDYAMDYWGQGTSVTVSS
VL: DIQMTQSPASLSASVGETVTITCGASENIYGALNWYQRKQGKSPQLLIYGATNLADGMSSRFSGSGSGRQYSLKISSLHPDDVATYYCQNVLITPYTFGGGTKLEIK
notes: also called chimeric 36F710; Chimeric MAb
B4: mouse anti-human CCL20 monoclonal antibody 36F7C10 (antibody, V domains shown)
VH: B3 VH
VL: B3 VL
notes: Mouse hybridoma antibody; also called MouseMAb; parental mouse clone 36F7C10

Target: T1, rhesus CCL20-secreted alkaline phosphatase (SEAP) fusion (rhesus monkey)
T1 construct: also called rCCL20; rhesus CCL20-SEAP; not shown: the SEAP reporter (cDNA from Clontech pSEAP-Enhancer) and its junction to CCL20
T1 chain: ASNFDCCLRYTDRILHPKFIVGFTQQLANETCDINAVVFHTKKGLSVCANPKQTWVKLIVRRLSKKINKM
Assay: SPR (Biacore), bivalent format, KD ratio against human CCL20 (Table 17)
Method: (§1) We also used surface plasmon resonance (Biacore™) analysis to test whether HC2/LC3 and HC2/LK3 can bind to mouse, cynomolgus, or rhesus macaque CCL20 orthologs. Monoclonal mouse anti-human placental alkaline phosphatase was immobilized on all four flow cells of a CM5 chip at a flow rate of 25 μl/min. 25 μl of a 2 nM solution of human, rhesus, cynomolgus, or mouse CCL20-SEAP in HBS-EP buffer was injected over flow cell 2, 3, or 4. For antibody binding, 240 μl of 0-80 nM dilutions of HC2/LC3, HC2/LK3, or 2F5-5 MAb in HBS-EP buffer (or buffer alone) was injected over all four flow cells at a flow rate of 50 μl/min. Dissociation followed for 45 min. Flow cell 1 (anti-SEAP alone) was used as a reference for all flow cells. Regeneration of the flow cells was performed with 10 mM glycine at pH 2.25. Due to regeneration effects on the capturing capacity of the chips, antibody injections were performed sequentially from low to high concentration. Data fitting was performed using a 1:1 Langmuir model.
(§2) In contrast, chimeric, HC2/LC3, and HC2/LK3 antibodies effectively bound to human, rhesus, and cynomolgus CCL20 (Table 17).
In the case of B1, the “fold higher KD than for human CCL20” value is reported as ~3 fold. With B2 the “fold higher KD than for human CCL20” value was ~3 fold. With B3 the “fold higher KD than for human CCL20” value was ~3 fold.

Target: T2, cynomolgus CCL20-secreted alkaline phosphatase (SEAP) fusion (cynomolgus monkey)
T2 construct: also called cCCL20; cynomolgus CCL20-SEAP; not shown: the SEAP reporter (cDNA from Clontech pSEAP-Enhancer) and its junction to CCL20
T2 chain: T1 chain with V38I
Assay: as above
Method: as §1, §2
For B1, the “fold higher KD than for human CCL20” value was ~3 fold. With B2 the “fold higher KD than for human CCL20” value was ~3 fold. For B3, the “fold higher KD than for human CCL20” value was ~3 fold.

What follows are binders tested against T3, recombinant human CCL27 (human, UniProt Q9Y4X3 25-112) (assay: ELISA, plate-bound chemokine (1 ug/ml), antibody 10 ug/ml, OD450).
T3 construct: also called CTACK
T3 sequence (looked up): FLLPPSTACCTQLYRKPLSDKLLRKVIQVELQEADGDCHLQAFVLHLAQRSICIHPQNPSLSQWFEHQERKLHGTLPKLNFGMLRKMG
Method: (§3) The wells of a 96-well plate were coated with 1 μg/ml of the recombinant human chemokines in PBS (−). After overnight incubation at 4° C., the wells were blocked with 1× Block-Ace (Dainippon Sumitomo Pharma, UK-B80) for 1 hour at room temperature. After washing twice with 0.02% Tween 20/PBS (−), we added 50 μl of 10 μg/ml purified 36F7C10, chimeric 36F710, HC2/LK3, or HC2/LC3 in 0.02% Tween 20/PBS (−) to each well. The wells were incubated for 1 hour at room temperature and washed three times as described in Example 3. […] After washing five times, a TMBZ (3,3′,5,5′-tetramethylbenzidine) solution (1%, in N,N-Dimethylformamide) was added to the wells and incubated for 15-30 minutes. The reaction was stopped by adding an equal volume of a 2 M H₂SO₄ stopping solution, and the optical density was read at 450 nm by ARVO (PerkinElmer).
B1: no binding (tested: 10 ug/ml). B2: no binding (tested: 10 ug/ml). B4: no binding (tested: 10 ug/ml). B3: no binding (tested: 10 ug/ml).

Each binder was assayed against T4, recombinant human CCL7 (human, UniProt P80098 24-99) in the same assay as above.
T4 construct: also called MARC
T4 sequence (P80098 24-99 limits assumed): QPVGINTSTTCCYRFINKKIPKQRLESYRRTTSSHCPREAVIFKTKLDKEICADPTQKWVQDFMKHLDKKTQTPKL
Method: as §3
B1: no binding (tested: 10 ug/ml). B2: no binding (tested: 10 ug/ml). B4: no binding (tested: 10 ug/ml). B3: no binding (tested: 10 ug/ml).

These binders were tested against T5, recombinant human CCL3 (human, UniProt P10147 27-92, limits assumed) in the same assay as above.
T5 construct: also called MIP-1a
T5 sequence (looked up): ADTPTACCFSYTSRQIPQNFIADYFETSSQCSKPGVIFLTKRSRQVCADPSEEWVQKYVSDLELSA
Method: as §3
B1: no binding (tested: 10 ug/ml). B2: no binding (tested: 10 ug/ml). B4: no binding (tested: 10 ug/ml). B3: no binding (tested: 10 ug/ml).

What follows are binders tested against T6, recombinant human CCL2 (human, UniProt P13500 24-99) in the same assay as above.
T6 construct: also called MCP-1/MCAF/JE
T6 sequence (P13500 24-99 limits assumed): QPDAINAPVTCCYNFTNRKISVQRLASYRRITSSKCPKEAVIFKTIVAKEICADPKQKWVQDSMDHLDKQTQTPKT
Method: as §3
B1: no binding (tested: 10 ug/ml). B2: no binding (tested: 10 ug/ml). B4: no binding (tested: 10 ug/ml). B3: no binding (tested: 10 ug/ml).

The binders below were run against T7, recombinant human CXCL16 (human, UniProt Q9H2A7 30-118, limits assumed) in the same assay as above.
T7 sequence (looked up): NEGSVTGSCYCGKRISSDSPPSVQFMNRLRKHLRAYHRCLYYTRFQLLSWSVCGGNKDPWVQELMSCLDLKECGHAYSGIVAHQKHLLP
Method: as §3
B1: no binding (tested: 10 ug/ml). B2: no binding (tested: 10 ug/ml). B4: no binding (tested: 10 ug/ml). B3: no binding (tested: 10 ug/ml).

These binders were tested against T8, recombinant human CXCL10 (human, UniProt P02778 22-98) in the same assay as above.
T8 construct: also called IP-10
T8 sequence (looked up): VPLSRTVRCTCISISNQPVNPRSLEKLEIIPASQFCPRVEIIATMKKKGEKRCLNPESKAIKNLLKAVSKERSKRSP
Method: as §3
B1: no binding (tested: 10 ug/ml). B2: no binding (tested: 10 ug/ml). B4: no binding (tested: 10 ug/ml). B3: no binding (tested: 10 ug/ml).

These binders were tested against T9, recombinant human CXCL8 (human, UniProt P10145 28-99) in the same assay as above.
T9 construct: also called IL-8
T9 sequence (looked up): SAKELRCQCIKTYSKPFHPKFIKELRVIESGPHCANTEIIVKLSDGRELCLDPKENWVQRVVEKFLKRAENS
Method: as §3
B1: no binding (tested: 10 ug/ml). B2: no binding (tested: 10 ug/ml). B4: no binding (tested: 10 ug/ml). B3: no binding (tested: 10 ug/ml).

Reference: patent US20160046707A1 (EISAI R AND D MANAGEMENT, published 2016)
